Laboratory results reported in the DeepSol protein solubility set.

Assay: soluble on expression in E. coli; label from the status in PepcDB or PDB records

Sequence | soluble on expression in E. coli
MAFNTPTLSTLIKQGEQQFQYRFPTLKRHNVIGVINRICAALSAGEHMHLDWLARQIIPTTAEEDYLIEYCLYKGIVRKQASTATGLVTVTAANDTTIPAGTVFEDTNTGLTFITTQETVVKAGTADIAVKCETTGVEGNLKAGTSLSLTSAILGLLPTATVKVMSGGADIESLSRLLARLIYRVQYPPAGGASHDYIRWATEVPGVTRAWCFERYYGGGTVGVAFACDEREDILPTPEDIARVRAYIEGHKNEVTGQFEGMPANVELYVFAPQFQAVNFKIRLAPNTPTLRQAVRKSLAAYLANAGVGALLYLSQIRATVSNTAGEVDNSVIFPTADVQLLSDNIAILGDIEWL | not soluble
MAFRKRRHDSEGDSDEERLPINKDEDEDLKAEPAKKSKNMWSDMLLEEQLLEKGQQINLDRTSRKQPNVSRGPESYLMPQDEFQRKQSRNANQKKKNEVFDKPVVLVTPASDDLFGDAPSALNEDFGVKKNDVKLPKDDEAGWWGKKGANKRYNDRMGYHSGGPRQPYPRKTTGQLMASEYSLESMVAAEFAPNLSTKELGTQMAAAMGEKDPDTVKKITNAIGSELSIKLFNETKEIEQNGGMKTADGSRRRTPGGVFITLFKMDSSVSREIKDGIFGDMRNAEKERTKKKKGEKQFTRQLEDMKKTMELAAQAETDLANEEQLATAVDAPFSDDAVDMV | not soluble
MAFSAPEPELSVVVPTLNEAETVATLLAALAAQRDVALELLLCDGGSTDGTAALVRGRAGDLPFPVTVTETPPGRGRQMNAGAAAARGATFLFLHADSIIADPLALRRGLDHLAAARRSDKRAAGHFRLRFAGDSPSPLAYRFYERKARLHRPGCTHGDQGLLIPREFFDQVGPFDEGLPILEDVRLAERIAAMGTWVLLPAEIITSARRFETEGLRERQTLNAILMNFAAIGWQQGVEELVAGYRSQDRSGRLRLGPHLARIAGLTAALPRQERLRLWYLTGGYVRGNAWQIPLFLDVRNAWRRGGDDGATPLLSLHDRWFDLLTDNPAGRAAAALMTFLWFRLTLRREMKDWPGILRTPLEHHHHHH | not soluble
MAGDPMAYQQGKQGQNVEKESTRQQETKPIHVKDTTQETKDNGTRTDIAKHLVSVAEKNPDVKDATAVVLGGYAVVGIDVDDTLDRSKVETIKYSVAQALKNDRYGANAVVIADPDTVSRLREMSREISEGHPVTGILDELAAIVGRVLPEVPNDVIDNEDEPQTKQQNDQLNRKQQQEMEKEQNDQSDHHMKKNNNDLEHHHHHH | soluble
MAGDPMGTLKLIQYPSQLLSLTISDIINKQNLSQLIQKSKKDDSENWEGKDWIIKNTPQQGINWIGEHPNIKAVIIKTKDGSYADDGWKNNEKTIYSYSFKAAKGIINFNDSANRVLINQPISNYPILLFTDSSNKWEFQGCFKIIDILEKAVILEKMISFPSLNDKNSDNDDVILYKNEHTEGKIKYITHMLSERNRKIIDEIKDNSQWVCDICEIKFLDKYGKNYIEAHHKIPIHTFTGEHRILKTDFALLCPNCHKAVHIYLREENLQYEEAKIKIRNILKRLEHHHHHH | not soluble
MAGDPMKVAFITLGCRVNSYESEAMAEKFIKSGWEIVDNDEKADAYVINTCTVTNMGDRKSRQMISRARKANKDAVIAAVGCYSQVEPEKVAEIEGVDIVLGTKNKGDIIHYVNKFIEERNQIVNVKDVFTDKKFEDLNIDEYQDKTRAFLKIQDGCNRFCSYCLIPYARGGVCSKNPEKVIGEIKRLAEHGFKEIILSGIHIASYGDDLKGDWNLISIIEKAEQIDGIERIRIGSIEPRFFDEDTISKIKNMKKMCPHFHLSLQSGCTETLERMNRKYTAEEYKEIVYKLRENISDVSITTDVIVGFPGETDEEFEKTYDFLKEIELAKMHVFKYSPREGTKAAAMKNQINGNVKDKRSAELIELDKINEKKFMSKFLDREMDVLFEKKLEENEDLYEGYTPNYIKVVVKSSEDISRKILKVKLTEIQDEHLLGELILYKLEHHHHHH | soluble
MAGDPMNEEQRKASSVDVLAERDKKAEKDYSKYFEHVYQPPNLKEAKKRGKQEVRYNRDFQIDEKYRGMGNERTFLIKTYGCQMNAHDTEVIAGILEALGYQATTDINTADVILINTCAIRENAENKVFSEIGNLKHLKKERPDILIGVCGCMSQEESVVNKILKSYQNVDMIFGTHNIHHLPEILEEAYLSKAMVVEVWSKEGDVIENLPKVREGNIKAWVNIMYGCDKFCTYCIVPFTRGKERSRRPEDIIDEVRELAREGYKEITLLGQNVNSYGKDLQDIEYDLGDLLQAISKIAIPRVRFTTSHPWDFTDHMIDVISEGGNIVPHIHLPVQSGNNAVLKIMGRKYTRESYLDLVKRIKDRIPNVALTTDIIVGYPNESEEQFEETLTLYDEVGFEHAYTYLYSQRDGTPAAKMKDNVPLNVKKERLQRLNKKVGHYSQIAMSKYEGQTVTVLCEGSSKKDDQVLAGYTDKNKLVNFKAPKEMIGKLVEVRIDEAKQYSLNGSFVKEVEPEMVIQLEHHHHHH | soluble
MAGDPMNNNSKNNSRNVVTMNQASQSYAAQESSKMCLFEPRVFSDTQDIADELKNRRATLVNLQRIDQVSAKRIIDFLSGTVYAIGGDIQRVGTDIFLCTPDNVEVAGSITDHIENMEQHYELEHHHHHH | not soluble
MAGDPMSGSKTSAEKKESETEKSSDIAQVKIKDVSYTLPSKYDKSTSDDQLVLKVNVAVKNTGKDPLNVDSMDFTLYQGDTKMSDTDPEDYSEKLQGSTINADKSVEGNLFFVVDKGKQYELNYTPESYGDKKPKSVTFKIDGKDKKILATADKLQDSAKALSAYVDVLLFGKDNADFEKITGANKNEIVNDFNESAKDGYLSASGLSSTYADSKALDNIVNGIKEGLSKNSSIQAKTTSISKDEAIVEATVKPVDASSLSDRIEDKVKDYYSKNSSASYEEAVKYALQVYPEEFKKLGPASSEKTVEVKMKKNDIDQWQLDMDDYRAAELVEAFIKELEHHHHHH | soluble
MAGDPMSRPPVPPFTCKTAIEKVRLAEDGWNSRDAAKVALAYTVDTRWRNRVEFATNREEAQAFLTRKWNREHEYRLIKELWAFTGNRIAVRYAYEYRDDNGQWFRAYGNENWEFAEDGLMAHRHACINEMPIAESDRLYHWPLGRRPDDHPSLTDLGLLEHHHHHH | not soluble
MAGDPMVTQNKKILIITGSFGNGHLQVTQSVVNQFKEMNLDNLTVIEHDLFLEAHPILTSICKKWYINSFKYFRNMYKAFYYSQPDQLDKCFYKYYGLNKLMNLLLKEKPDLILLTFPTPVMSVLTEQFDMNIPIATVMTDYRMQKNWITPFSQRYYLATEELKDEFASIGIPKDKLKVTGIPISDKFETDIDKTAWLSQNHLDPDKPTILMSAGAFGVSKGFGQMIQEILNRSPHAQVVMICGKNKDLKRSLTSQFKDFNNVLILGYTKHMNEWMASSQLMITKPGGITISEALTRQIPMIFLDPAPGQELENAVYFEEKGYGRIANTPEAAIEQVAALTNAPTKLASMSESMDASRIPYSTYKLCKDLLNLLNHSSHYEEVYGKVPLYAKLFVKLEHHHHHH | not soluble
MAGEILVIGGGISGLTAAIEAAETGYDVILLEKNPYLGGRVSQLNKYFPKLCPPFCGLEILFKRMKSTPKLKYFTNAEVQEISGESGNFTVKVKLKPRYVNENCTACGACKEVCPIEAPDEYNFGLKKKKAIDLPNIMAMPFQYYIDDKYCNKCGECVSACKYNAIDLNEEEREMTLNVSSIIVATGWKPYDATKLDNLGYGKYKNVITNMEMERLASPNGPTGGVIQTMDGKPIETIAFVQCAGSRDENHLPYCSAICCLASLKQATYVREQYPDAKIYIFYIDIRAFGRYEDFFAKVKADEKIELIKGKVAKVEEVDGKLVVTAEDTLTGVKSKKEVDMVVLATGMQPAIEPIPGLELDEYGFVKPKPGIIPVGVAAMPMEVASANETATAAALKAIQLARRLEHHHHHH | soluble
MAGHSKWAQIKRKKAANDLKRGKLISKHLRAIQAAARAGGSPYPEANVQLRNAIEAARADDVPMENIERLLQKLQGGGEGAEQYEEIVYEGYAPGGVALLVYALTDNRNRTASEVRHVFSKHGGSLGTTGSVAWQFERRGVVVCENTEAAQEAAIELGALDLEEEGENLTVYTEPTEAYRIAEALKAKGVRVEAVEVVQHPQNTVALPPEEAQKVMRLVEALEDLDDVQHVYTNLDPESLQVEA | soluble
MAGHVHKVAVRQLKLLRYRNYFSFNIRFSGQHVVFTGHNGSGKTNLLEALSFLSPGRGLRRAAYSDVSFANGGGEGFVVFARLECALYGEVNIGTALEMSDNSRKVHINGVNETGDCLTDYCHMSILTPSMDGLFTGSSLERRRFLDRMVLAIDPLHSRRIADYDRVMRARNRLFLDGNEDCAWFDALEKQMAELATAISAARIDVIRLLNDMLARTPSQLPFPRAFLQIDGFLEAALSKISAVEVEEQFCDRLQHNRAIDRAAGRTLEGPHRTDLQVFYADKNMAAASCSTGEQKALLTGLVLCHARLTGLMSERTPILLLDEIVAHLDSHRRAALFDILDDLGGQTFMTGTDPILFNALKGRAEFFAIKDGTLLQ | not soluble
MAGHVNGTCAPVIPKVGDEEDGVGQLVANLKEKGTNFVLLKKTPQILELQTILKDRSTNHSDFVFNADRLMRLVIEECLNHLPFTEHTVTTPTGFKYEGIQFNRGNCGVSLCRSGEAMEVSLRQCCRCIRIGKILIGDEQKVLYARLLPDITSRRVLLLYPTIGSGTTVCKAIEVLKEARVPDENIYLVSLFISPTGLKNITRKYPYITVVASDITSLYPNHFSTSYFGAV | not soluble
MAGKCVFIVGAKRTAFGTFGGKLKGLSATDLGVVASQAALKHANVGADAVDHVIFGNVVASSRDGIYLSRHIGLKSGVPQNVGALTVNRLCGSGFQAVVNAAQAIKLGESNIVLAGGTENMSMVPFAVRDIRFGTALGKKYEFEDMLWDSLSDPYAKLAMGQTAEKLGAQYKVTRQEADEFALRSQTLWKKAQEAGVYKNEIVGITIKGRKGEESFEIDEHPRATTAESLAKLKPVFQKDGLVNAGNASGISDGAAALVVAGEDSVKSKNLKPLARVVAYSAVGCDPTIMGIGPAPAIREVLKKSGLKIGDIDIFEVNEAFAPQALAVQRELGIPMEKLNVNGGAIALGHPLAASGARISTHIVHELHRRNVKYGIGSACIGGGQGIAILFEKIEMKVLSKKKFFSEKNQKSANTSTQSRVSDANSPPPPPPHFTRSFLGL | soluble
MAGLKRRASQVWPEEHGEQEHGLYSLHRMFDIVGTHLTHRDVRVLSFLFVDVIDDHERGLIRNGRDFLLALERQGRCDESNFRQVLQLLRIITRHDLLPYVTLKRRRAVCPDLVDKYLEETSIRYVTPRALSDPEPRPPQPSKTVPPHYPVVCCPTSGPQMCSKRPARGRATLGSQRKRRKSVTPDPKEKQTCDIRLRVRAEYCQHETALQGNVFSNKQDPLERQFERFNQANTILKSRDLGSIICDIKFSELTYLDAFWRDYINGSLLEALKGVFITDSLKQAVGHEAIKLLVNVDEEDYELGRQKLLRNLMLQALPLEHHHHHH | not soluble
MAGPSLVEVAAAVLIRPDDSFLLACRPDGKPYAGYWEFPGGKIETGESPLQALARELDEELGITVRQATPWLTRTFSYPHATVRLRFYRVTDWHGELTPRERQQFAWQTAENITVSPLLPANTPILRSLALPSIYAVTRTVETDIEASLLSIGQTLGNGVKLLQIRQKAMSHDQLEHFSRTALQLARSYQATVLINENIPLAQTLQADGVHLTAAQLRSLHSRPAVNWCGASCHNEQELQRAERLGVDFVTLSPVQPTLSHPGAAALGWKEFAALIRDYPLPVYALGGLLPADLETAREYGAHGIAMMRSILEHHHHHH | not soluble
MAGSVGEETEPEWIKRVKLEGAVPCLKPDDNCKNGWTTPSPDTFMVRGPKYFSDKVKIPAGDFLLKPLGFDWIKGPKKLSEILSYPSSRIRKVIDEEFQKDGTKPFVWAFNLQLPHKDNYSAVAYFVTTEPILEGSLMDRFLKGDDGFKKSRLKLIANIVKGPWIVRKAVGEQAICVIGRALSCKYVSGENFVEIDVDIGSSMVASAIVHLAFGYVTTLTVDLAFLIESQTEAELPEKLLGAVRFSELQTESATSIELSSSTSNDQWDQTTSERSSWWKSIGNGFSNLLNQDTANMNNTSHGDIQKDEHVQKQ | soluble
